In publication PMC7496933, “TIM‐3 and CEACAM1 do not interact in cis and in trans” (European Journal of Immunology, 2020):

Target: T1, recombinant human CEACAM1 expressed in the murine myeloma cell line NSO (human, UniProt P13688 35-428)
T1 construct: human CEACAM1, recombinant; also called immobilized CEACAM1; CD66a; source: bought: R&D systems (expressed in NSO cells)
T1 sequence (looked up): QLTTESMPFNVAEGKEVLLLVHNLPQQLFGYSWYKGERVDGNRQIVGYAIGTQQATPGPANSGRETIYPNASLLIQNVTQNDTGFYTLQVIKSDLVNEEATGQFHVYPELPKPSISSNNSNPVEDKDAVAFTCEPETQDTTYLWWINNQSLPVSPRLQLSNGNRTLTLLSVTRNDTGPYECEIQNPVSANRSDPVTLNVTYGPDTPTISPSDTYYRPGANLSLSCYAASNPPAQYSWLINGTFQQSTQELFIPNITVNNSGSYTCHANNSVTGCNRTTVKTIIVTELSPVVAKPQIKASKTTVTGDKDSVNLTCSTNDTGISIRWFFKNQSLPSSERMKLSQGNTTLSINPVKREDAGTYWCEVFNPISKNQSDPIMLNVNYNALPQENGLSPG
Test: ELISA; Gal‐9 or CEACAM1 immobilized overnight at 4°C on Maxisorp plates (coating 0.5 μg/mL); Ig fusion proteins added in PBS‐0.5% BSA, 1 h at room temperature; detected with HRP‐labeled goat‐anti‐human IgG (Fc‐specific), ABTS, OD 405 nm
Conditions: both partners purified

B1: fusion protein representing the extracellular domain of CEACAM1 (CEACAM1‐Ig) (Fc fusion, human, UniProt P13688 35-428, looked up)
chain: T1 sequence (looked up)
notes: CEACAM1 (CD66a), extracellular domain; also called CEACAM1 Ig fusion protein; source: bought: SinoBiological
- binding result: binds
